# Results: patent US20050100554A1 (published 2005)
# B1: Human papillomavirus 16 E2 (other)
# chain: METLCQRLNVCQDKILTHYENDSTDLRDHIDYWKHMRLECAIYYKAREMGFKHINHQVVPTLAVSKNKALQAIELQLTLETIYNSQYSNEKWTLQDVSLEVYLTAPTGCIKKHGYTVEVQFDGDICNTMHYTNWTHIYICEEASVTVVEGQVDYYGLYYVHEGIRTYFVQFKDDAEKYSKNKVWEVHAGGQVILCPTSVFSSNEVSSPEIIRQHLANHPAATHTKAVALGTEETQTTIQRPRSEPDTGNPCHTTKLLHRDSVDSAPILTAFNSSHKGRINCNSNTTPIVHLKGDANTLKCLRYRFKKHCTLYTAVSSTWHWTGHNVKHKSAIVTLTYDSEWQRDQFLSQVKIPKTITVSTGFMSI
# notes: also called HPV 16 E2; cbe_251088
# B2: DAD1 (other)
# chain: SASVVSVISRFLEEYLSSTPQRLKLLDAYLLYILLTGALQFGYCLLVGTFPFNSFLSGFISCVGSFILAVCLRIQINPQNKADFQGISPERAFADFLFASTILHLVVMNFVG
# notes: also called cbe_4268208
# B3: eukaryotic translation elongation factor 1 alpha 1-like 14 (other)
# chain: MQSERGITIDISLWKFETSKYYVTIIDAPGHRDFIQNMITGTSQADCAVLIVAAGVGEFEAGISKNGQTREHALLAYTLGVKQLIVGVNKMDSTEPPYSQKRYEEIVKEVSTYIKKIGYNPDTVAFVPISGWNGDNMLEPSANMPWFKGWKVTRKDGNASGTTLLEALDCILPPTRPTDKPLGLPLQDVYKIGGIGTVPVGRVETGVLKPGMVVTFGPVNVTTEVKSVEMHHEALGEALPGDNVGFNVKNVSVKDVRRGNVAGDSKNDPPMEAAGFPAQVIILNHPGQISAGYAPVLDCHTAHIACKFAELKEKIDRRSGKKLEDGPKFLKSGDAAIVDMVPGKPMCVESFSDYPPLGCFAVRDMRQTVAVGVIKAVDKKAAGAGKVTKSAQKAQKAK
# notes: also called EEF1A1L14; cbe_3773649
# B4: Human papillomavirus 16 E7 (other)
# chain: MHGDTPTLHEYMLDLQPETTDLYCYEQLNDSSEEEDEIDGPAGQAEPDRAHYNIVTFCCKCDSTLRLCVQSTHVDIRTLEDLLMGTLGIVCPICSQKP
# notes: also called HPV 16 E7; HPV16 E7
# B5: soggy-1 gene (other)
# chain: APIHDADAQESSLGLTGLQSLLQGFSRLFLKGNLLRGIDSLFSAPMDFRGLPGNYHKEENQEHQLGNNTLSSHLQIDKMTDNKTGEVLISENVVASIQPAEGSFEGDLKVPRMEEKEALVPIQKATDSFHTELHPRVAFWIIKLPRRRSHQDALEGGHWLSEKRHRLQAIRDGLRKGTHKDVLEEGTESSSHSRLSPRKTHLLYILRPSRQL
# notes: also called DKKL1-pending; cbe_4279962
# How the values were obtained:
# [1] = target: T1, Human Papillomavirus 1a L2 (Human Papillomavirus 1a, UniProt P03105 1-507); assay: Y2H; INT ID 146
# T1 construct: also called HPV 1a L2; cbe_252041
# T1 sequence: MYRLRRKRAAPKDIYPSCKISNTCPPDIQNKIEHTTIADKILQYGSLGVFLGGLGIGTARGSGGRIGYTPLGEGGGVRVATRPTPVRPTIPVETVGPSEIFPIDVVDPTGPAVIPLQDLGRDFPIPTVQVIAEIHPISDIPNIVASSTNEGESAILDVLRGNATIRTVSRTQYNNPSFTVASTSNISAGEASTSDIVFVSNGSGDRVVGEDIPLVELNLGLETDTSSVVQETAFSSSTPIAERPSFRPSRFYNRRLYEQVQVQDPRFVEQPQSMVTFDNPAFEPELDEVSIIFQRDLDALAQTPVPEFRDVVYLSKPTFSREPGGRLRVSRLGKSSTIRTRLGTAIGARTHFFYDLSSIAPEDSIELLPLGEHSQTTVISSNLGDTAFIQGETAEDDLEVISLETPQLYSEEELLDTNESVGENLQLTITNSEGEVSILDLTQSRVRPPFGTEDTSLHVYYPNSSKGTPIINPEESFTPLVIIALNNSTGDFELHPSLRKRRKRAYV
# EFEMP1 = target: T2, EFEMP1 (human, UniProt Q12805 18-493); assay: Y2H; INT ID 147
# T2 construct: also called cbe_2321057
# T2 sequence: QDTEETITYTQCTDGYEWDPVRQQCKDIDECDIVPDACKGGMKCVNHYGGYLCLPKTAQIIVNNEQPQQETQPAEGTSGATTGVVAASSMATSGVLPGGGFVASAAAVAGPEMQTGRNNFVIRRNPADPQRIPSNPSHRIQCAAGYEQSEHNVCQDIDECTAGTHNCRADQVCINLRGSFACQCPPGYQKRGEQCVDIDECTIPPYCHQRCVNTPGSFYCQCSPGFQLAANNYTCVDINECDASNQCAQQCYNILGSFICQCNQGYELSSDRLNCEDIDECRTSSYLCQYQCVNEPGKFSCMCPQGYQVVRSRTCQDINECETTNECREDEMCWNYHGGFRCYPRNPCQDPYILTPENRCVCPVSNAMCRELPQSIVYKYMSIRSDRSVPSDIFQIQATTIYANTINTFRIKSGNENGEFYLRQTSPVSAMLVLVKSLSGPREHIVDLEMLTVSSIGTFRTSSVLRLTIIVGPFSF
# [2] = target: B1; assay: Y2H; INT ID 150
# [3] = target: B4; assay: Y2H; INT ID 169
# keratin 4 = target: T3, keratin 4 (human, UniProt P19013 1-520); assay: Y2H; INT ID 168
# T3 construct: also called KRT4; cbe_3474077
# PTPN21 = target: T4, PTPN21 (human, UniProt Q16825 1-1174); assay: Y2H; INT ID 174
# T4 construct: also called cbe_4260642
# T4 sequence: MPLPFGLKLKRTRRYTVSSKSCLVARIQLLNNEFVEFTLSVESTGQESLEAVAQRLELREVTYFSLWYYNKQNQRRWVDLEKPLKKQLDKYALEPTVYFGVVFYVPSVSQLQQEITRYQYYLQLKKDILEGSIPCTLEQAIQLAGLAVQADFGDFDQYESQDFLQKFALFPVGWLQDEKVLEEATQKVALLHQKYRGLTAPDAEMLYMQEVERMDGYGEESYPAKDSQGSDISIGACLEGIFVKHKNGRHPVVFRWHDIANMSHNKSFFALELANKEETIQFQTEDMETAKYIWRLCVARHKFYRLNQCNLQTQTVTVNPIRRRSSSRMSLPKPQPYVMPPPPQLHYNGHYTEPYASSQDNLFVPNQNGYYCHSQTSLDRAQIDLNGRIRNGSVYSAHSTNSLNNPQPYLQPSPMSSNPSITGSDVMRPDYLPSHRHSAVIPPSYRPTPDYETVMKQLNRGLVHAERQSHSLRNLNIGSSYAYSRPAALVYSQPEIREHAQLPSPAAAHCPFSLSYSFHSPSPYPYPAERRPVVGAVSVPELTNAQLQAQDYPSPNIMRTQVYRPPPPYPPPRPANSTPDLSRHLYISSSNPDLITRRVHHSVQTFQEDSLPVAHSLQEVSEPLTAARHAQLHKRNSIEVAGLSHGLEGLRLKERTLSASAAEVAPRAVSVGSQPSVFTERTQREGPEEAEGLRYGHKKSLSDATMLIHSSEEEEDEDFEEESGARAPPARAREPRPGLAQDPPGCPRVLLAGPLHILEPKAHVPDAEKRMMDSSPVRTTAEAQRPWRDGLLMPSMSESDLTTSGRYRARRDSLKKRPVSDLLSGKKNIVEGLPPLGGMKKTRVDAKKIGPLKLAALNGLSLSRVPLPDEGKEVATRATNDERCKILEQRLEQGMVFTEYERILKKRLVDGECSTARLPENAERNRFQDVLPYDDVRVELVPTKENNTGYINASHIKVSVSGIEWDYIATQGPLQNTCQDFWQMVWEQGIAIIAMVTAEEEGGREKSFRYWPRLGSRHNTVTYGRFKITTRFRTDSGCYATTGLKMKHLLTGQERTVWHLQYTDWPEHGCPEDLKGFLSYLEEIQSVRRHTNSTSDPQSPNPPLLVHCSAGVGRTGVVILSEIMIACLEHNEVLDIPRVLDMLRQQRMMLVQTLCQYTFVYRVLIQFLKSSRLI
# STX4A = target: T5, STX4A (human, UniProt Q12846 1-297); assay: Y2H; INT ID 181
# T5 construct: also called syntaxin 4; cbe_4270186
# T5 sequence: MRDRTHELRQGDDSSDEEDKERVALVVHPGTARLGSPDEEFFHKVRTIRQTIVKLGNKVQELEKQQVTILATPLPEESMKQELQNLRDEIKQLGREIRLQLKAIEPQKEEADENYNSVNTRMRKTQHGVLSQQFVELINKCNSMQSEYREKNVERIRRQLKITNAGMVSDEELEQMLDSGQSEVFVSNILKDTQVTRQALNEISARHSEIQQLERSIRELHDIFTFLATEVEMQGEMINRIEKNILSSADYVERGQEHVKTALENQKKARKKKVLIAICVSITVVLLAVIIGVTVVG
# NDUFS3 = target: T6, NDUFS3 (human, UniProt O75489 37-264); assay: Y2H; INT ID 176
# T6 construct: also called cbe_4268611
# [4] = target: T7, tissue factor pathway inhibitor (lipoprotein-associated coagulation inhibitor) (human, UniProt P10646 29-304); assay: Y2H; INT ID 172
# T7 construct: also called TFPI; cbe_3834015
# T7 sequence: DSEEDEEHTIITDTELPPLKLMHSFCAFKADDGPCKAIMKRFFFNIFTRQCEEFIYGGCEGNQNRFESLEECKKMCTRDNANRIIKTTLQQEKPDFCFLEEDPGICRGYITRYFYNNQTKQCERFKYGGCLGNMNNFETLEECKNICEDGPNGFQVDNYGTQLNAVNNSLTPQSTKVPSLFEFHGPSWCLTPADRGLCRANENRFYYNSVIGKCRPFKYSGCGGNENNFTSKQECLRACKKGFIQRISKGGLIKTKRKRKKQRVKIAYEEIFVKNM
# [5] = target: T8, zinc finger protein ZNF140-like protein (human, UniProt Q9NR11 1-478); assay: Y2H; INT ID 170
# T8 construct: also called LOC55828; cbe_3787129
# MPP3 = target: T9, MPP3 (human, UniProt Q13368 1-585); assay: Y2H; INT ID 173
# T9 construct: also called cbe_3921620
# T9 sequence: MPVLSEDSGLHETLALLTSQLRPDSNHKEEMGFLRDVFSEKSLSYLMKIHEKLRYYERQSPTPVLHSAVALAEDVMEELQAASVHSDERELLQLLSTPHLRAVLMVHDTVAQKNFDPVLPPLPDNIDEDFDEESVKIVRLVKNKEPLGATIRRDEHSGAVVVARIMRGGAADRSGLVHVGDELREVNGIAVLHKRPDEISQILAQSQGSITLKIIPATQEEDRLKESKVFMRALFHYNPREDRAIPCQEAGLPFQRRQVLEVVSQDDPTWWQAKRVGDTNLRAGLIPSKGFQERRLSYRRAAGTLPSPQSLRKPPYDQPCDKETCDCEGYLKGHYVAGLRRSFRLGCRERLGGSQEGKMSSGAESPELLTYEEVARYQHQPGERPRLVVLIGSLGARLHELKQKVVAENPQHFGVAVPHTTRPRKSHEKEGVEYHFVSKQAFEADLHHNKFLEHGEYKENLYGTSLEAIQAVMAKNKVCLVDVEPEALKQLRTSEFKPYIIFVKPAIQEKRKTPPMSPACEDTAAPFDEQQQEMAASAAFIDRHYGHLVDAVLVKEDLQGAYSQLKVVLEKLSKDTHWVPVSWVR
# PSMC1 = target: T10, PSMC1 (human, UniProt P62191 2-440); assay: Y2H; INT ID 179
# T10 construct: also called proteosome 26S subunit; proteosome subunit PMSC1
# [6] = target: B1; assay: Y2H; INT ID 151
# T10 sequence (P62191 2-440 limits assumed): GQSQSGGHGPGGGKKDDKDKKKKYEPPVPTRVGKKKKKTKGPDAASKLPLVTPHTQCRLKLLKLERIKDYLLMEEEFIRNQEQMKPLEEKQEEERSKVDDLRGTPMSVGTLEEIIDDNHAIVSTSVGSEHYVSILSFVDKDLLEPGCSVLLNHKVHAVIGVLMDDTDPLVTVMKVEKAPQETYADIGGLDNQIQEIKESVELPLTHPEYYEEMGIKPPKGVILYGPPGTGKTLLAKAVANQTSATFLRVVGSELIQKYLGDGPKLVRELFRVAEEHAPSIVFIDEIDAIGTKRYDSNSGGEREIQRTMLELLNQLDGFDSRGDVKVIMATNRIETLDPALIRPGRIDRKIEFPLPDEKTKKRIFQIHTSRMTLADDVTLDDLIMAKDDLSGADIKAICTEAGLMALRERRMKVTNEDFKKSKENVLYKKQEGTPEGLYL
# T3 sequence (P19013 other isoform, or with tags, fused parts or gaps limits assumed): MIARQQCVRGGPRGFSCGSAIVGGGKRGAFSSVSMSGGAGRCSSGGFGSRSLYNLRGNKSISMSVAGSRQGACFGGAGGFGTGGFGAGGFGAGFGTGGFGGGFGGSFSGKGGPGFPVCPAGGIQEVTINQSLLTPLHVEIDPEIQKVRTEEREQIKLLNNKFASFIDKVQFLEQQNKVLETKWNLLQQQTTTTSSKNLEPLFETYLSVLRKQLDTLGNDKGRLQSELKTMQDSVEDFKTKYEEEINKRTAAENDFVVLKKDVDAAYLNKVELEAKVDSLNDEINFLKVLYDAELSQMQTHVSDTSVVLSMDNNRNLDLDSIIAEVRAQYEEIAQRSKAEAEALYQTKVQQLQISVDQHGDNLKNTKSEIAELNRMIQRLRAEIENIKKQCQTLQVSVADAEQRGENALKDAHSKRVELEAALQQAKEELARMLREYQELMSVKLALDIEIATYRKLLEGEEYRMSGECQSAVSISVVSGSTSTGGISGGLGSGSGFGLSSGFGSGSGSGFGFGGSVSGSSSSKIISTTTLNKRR
# T8 sequence (Q9NR11 whole entry): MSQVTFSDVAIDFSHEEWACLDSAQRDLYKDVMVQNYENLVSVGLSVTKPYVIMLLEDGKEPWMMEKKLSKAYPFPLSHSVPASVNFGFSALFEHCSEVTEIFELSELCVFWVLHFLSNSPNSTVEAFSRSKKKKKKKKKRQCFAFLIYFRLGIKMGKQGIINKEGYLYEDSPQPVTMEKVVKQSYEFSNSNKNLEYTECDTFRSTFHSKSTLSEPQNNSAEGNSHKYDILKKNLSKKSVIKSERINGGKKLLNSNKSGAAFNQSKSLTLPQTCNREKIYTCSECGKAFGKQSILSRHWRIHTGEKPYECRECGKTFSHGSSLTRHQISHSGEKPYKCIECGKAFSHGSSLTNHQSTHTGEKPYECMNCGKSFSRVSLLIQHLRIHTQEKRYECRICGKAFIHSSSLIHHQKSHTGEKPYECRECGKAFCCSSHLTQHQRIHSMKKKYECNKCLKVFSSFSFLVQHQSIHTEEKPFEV
# T6 sequence (O75489 37-264 limits assumed): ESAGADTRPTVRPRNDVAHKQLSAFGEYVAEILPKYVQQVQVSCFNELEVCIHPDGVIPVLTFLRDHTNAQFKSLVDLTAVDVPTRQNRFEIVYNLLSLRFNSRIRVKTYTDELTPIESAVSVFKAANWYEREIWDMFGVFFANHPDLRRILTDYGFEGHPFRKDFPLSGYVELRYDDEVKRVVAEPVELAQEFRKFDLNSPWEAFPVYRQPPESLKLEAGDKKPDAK
binder,measurement,setting,value
B1,binding result,[1],binds
same,binding result,EFEMP1,binds
B2,binding result,[2],binds
B3,binding result,[3],binds
B4,binding result,keratin 4,binds
same,binding result,PTPN21,binds
same,binding result,STX4A,binds
same,binding result,NDUFS3,binds
same,binding result,[4],binds
same,binding result,[5],binds
same,binding result,MPP3,binds
same,binding result,PSMC1,binds
B5,binding result,[6],binds
